# According to US7772181B2, “Personal care compositions comprising modified variant Bowman Birk Protease Inhibitors” (Danisco US Inc., priority 2008, dated 2010):
# T1: VegF (UniProt P15692)
# T1 sequence (P15692 207-395): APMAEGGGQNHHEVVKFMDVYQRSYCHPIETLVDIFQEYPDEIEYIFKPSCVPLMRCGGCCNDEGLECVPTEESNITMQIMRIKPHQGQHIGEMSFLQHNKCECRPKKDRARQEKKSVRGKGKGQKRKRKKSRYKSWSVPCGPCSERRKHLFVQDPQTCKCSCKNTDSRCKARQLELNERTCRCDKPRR
# T2: bovine pancreatic trypsin (Bos taurus, UniProt P00760)
# T2 construct: purchased Worthington (Worthington Biochemical Corp.)
# T2 sequence (P00760 24-246): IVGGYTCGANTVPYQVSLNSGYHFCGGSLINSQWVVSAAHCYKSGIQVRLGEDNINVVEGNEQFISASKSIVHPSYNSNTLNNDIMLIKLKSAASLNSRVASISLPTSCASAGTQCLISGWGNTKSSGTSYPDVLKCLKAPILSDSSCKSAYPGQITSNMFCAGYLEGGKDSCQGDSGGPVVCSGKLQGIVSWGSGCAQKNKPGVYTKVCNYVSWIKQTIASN
# B1: BBIt-AV: truncated BBI-AV lacking the 5 C-terminal amino acids, unmodified variant, SEQ ID NO:187 (protein)
# chain: DDESSKPCCDQCACTKSNPPQCRCSDMRLNSCHSACKSCACYNLYGWTCFCVDITDFCYEPCKPSE
# modifications: synthetic BBIt-AV sequence
# B2: V52L: BBIt-AV (SEQ ID NO:187) with single substitution V52L (protein)
# chain: DDESSKPCCDQCACTKSNPPQCRCSDMRLNSCHSACKSCACYNLYGWTCFCLDITDFCYEPCKPSE
# modifications: synthetic BBIt-AV sequence
# B3: BBIt-AV of SEQ ID NO: 640 (protein)
# chain: DPDDESSKPCCDQCICTKSNPPQCRCRDARPNACHSACKSCACKYYLYWWCKCTDITDFCYEPCKPSE
# modifications: synthetic BBIt-VEGK
# B4: BBIt-AV of SEQ ID NO: 642 (protein)
# chain: DPDDESSKPCCDQCICTKSNPPQCRCRDARPNACHSACKSCACKYDLYWWCKCTDITDFCYEPCKPSE
# modifications: synthetic BBIt-VEGKD
# B5: BBIt-AV of SEQ ID NO: 641 (protein)
# chain: DPDDESSKPCCDQCICTKSNPPQCRCRDARPNACHSACKSCACTLWKSYWCKCTDITDFCYEPCKPSE
# modifications: synthetic BBIt-VEGT
# B6: QQ8: octuple modified variant BBPI, SEQ ID NO:628 (protein)
# chain: DPDDESSKPCCDQCICTKSNPPQCRCKDARRNECHSACKSCKCYNLYGWTCQCQDITDFCYEPCKPSE
# modifications: synthetic BBPI variant
# B7: KT8: octuple modified variant BBPI, SEQ ID NO:627 (protein)
# chain: DPDDESSKPCCDQCICTKSNPPQCRCRDARPNACHSACKSCHCYNLYGWTCKCTDITDFCYEPCKPSE
# modifications: synthetic BBPI variant
# B8: RL8: octuple modified variant BBPI, SEQ ID NO:630 (protein)
# chain: DPDDESSKPCCDQCICTKSNPPQCRCKDARRNACHSACKSCHCYNLYGWTCRCLDITDFCYEPCKPSE
# modifications: synthetic BBPI variant
# How the values were obtained:
# VegF = target: T1, VegF; experiment: BioVeris electrochemiluminescence competition binding assay, VEGF; details: for IC50: Target protein VEGF, competition assay, concentration reducing BioVeris signal by one half, read-out: BioVeris Binding (apparent IC50)
# Procedure: Briefly, after cleavage, the pH of the cleaved sample was adjusted to 5.5, the sample was then loaded onto the column (equilibrated with 25 mM MES pH 5.5). The free 2BBIck81 was washed through the column using 25 mM sodium acetate pH 5.0 while the BCE103 catalytic core remained bound to the resin. The 2BBIck81 fraction was concentrated by ultrafiltration and analyzed using an electrochemiluminescence (ECL) based binding assay (BioVeris). The Anti-VegF antibody (Santa Cruz) and VegF (PeproTech) were labeled with the electrochemiluminescent dye and biotin, respectively, as described by the manufacturer (BioVeris). All materials were in Dulbecco's PBS (Mediatech) supplemented with 0.1% TWEEN®-80. An initial dilution series of Anti-VegF antibody (125, 250 and 500 ng/ml) and VegF (100, 150, 200 and 250 ng/ml) were tested in the binding assay to determine the concentrations of each that would give a robust ECL signal.
# For testing 2BBIck81 binding, 50 μL of 500 ng/ml ECL labeled Anti-VegF antibody, 50 μL of 250 ng/ml biotinylated VegF and 100 μL 2BBIck81 (series of 12.5, 15, 31.25, 62.5, 125, 250 or 500 ng/ml) were incubated at room temperature for 2 h with shaking. Then, 50 μL of 0.2 mg/ml streptavidin coated beads were added and the reaction was incubated at room temperature for 30 minutes. The ECL signal was measured using a BioVeris M8/384 Analyzer as described by the manufacturer (BioVeris).
# The resulting vectors were used to transform B. subtilis BG6006 host cells. Cultures were grown in 500 ml of MBD medium and the BBI species were purified essentially as described above and by Vogtentanz et al., 2007 (Protein Expr Purif 55:40-52 [2007]). BioVeris binding assays were performed essentially as outlined in Example 5 and by the manufacturer. Binding of the modified variant BBIs to their respective target proteins was measured using a BioVeris® binding assay, which is a competition assay that determines the binding of the modified variant BBIs to its target protein (e.g. VEGF, FGF5, TGFβ and TNFα) in the presence or absence of a labeled competitor. The competitor can be a labeled monoclonal antibody raised against the target protein or a labeled native receptor of the target protein. The electrochemiluminescent binding assays were performed essentially as described in Example 5. The apparent IC50s were determined from binding data by determining the concentration of the BBI species needed to reduce the BioVeris signal by one half. BBI scaffolds without the target binding peptide in the chymotrypsin inhibitory loop were used as negative controls.
# [1] = target: T2, bovine pancreatic trypsin; experiment: BBIt-AV:BCE activity ratio, microtiter plate screens (primary, quadruplicate secondary); assay type: biochemical; details: single substitution in BBIt-AV, in the presence of reducing agent
# Procedure: The cultures in each master plate were thawed and a pin replicator was used to inoculate a new sterile microtiter plate containing 150 μl of Luria broth with 5 μg/ml chloramphenicol in each well. The plates were grown for ˜10 hrs in a humidified and aerated box as described above. For controls, the cultures in two wells were replaced with BBI and BBI-AV cultures that had been grown concurrently in 15 ml culture tubes (5 ml of Luria broth with 5 μg/ml chloramphenicol). After the cultures were grown, the plate was used to inoculate two duplicate 96-well filter plates (Millipore, MSGV2210) containing 150 μl of MBD medium (Vogtentanz et al., 2007) with 5 μg/ml chloramphenicol in each well by using a pin replicator. The duplicate plates were grown for ˜14 hours (as above, with plastic spacers placed between the stacked plates to allow for efficient air flow around the plates) and then 2-mecaptoethanol was added to each well in one of the plates to a final concentration of 2 mM. The plates were then grown for an additional ˜46 hours. The 96-well filter plates containing the culture broth (with or without added 2-mecaptoethanol) were then assayed for BBI and BCE activity.
# Libraries were analyzed using dilutions of cultures grown in 96-well plates. Typically, the culture broth from each well was diluted (200 fold) in Assay Buffer (100 mM Tris pH 8.6, 0.005% Tween 80) and transferred to a second microtiter plate (CoStar 9017, Corning, Inc., Corning, N.Y.). Then, 20 μl of the diluted samples were transferred to a third microtiter plate. A standard curve was created by adding 20, 10, 5 or 2.5 μl of the diluted sBBI (SEQ ID NO:13) control culture to empty wells. Then, 80 μL of 50 ng/ml trypsin (bovine pancreatic trypsin, Worthington Biochemical Corp., Lakewood, N.J.) (prepared from a 1 mg/mL stock solution diluted into Assay Buffer) was added to each well of the plate. The reactions were mixed and incubated 15 min at room temperature. After the incubation, 100 μL of 0.5 mg/ml trypsin substrate (succinyl-Ala-Ala-Pro-Arg-para-nitroanilide, Bachem Bioscience, Inc., King of Prussia, Pa.), diluted in Assay Buffer from a 100 mg/ml solution in DMSO, was added to each well, mixed, and the absorbance at 405 nm was monitored for 15 min, with 1 time point recorded every 12 sec using a Spectra Max 250 (Molecular Devices). The data points were used to determine the rate for each reaction. The standard curve was generated by plotting the reaction rate versus the BBI volume and was fitted to a four-parameter equation. All data fitting was done using software supplied by the manufacturer (Molecular Devices Corp., Sunnyvale, Calif.). The activity of each BBIt-AV variant was calculated from the standard curve. Thus, the activities of all modified variant proteins were determined relative to the activity in the sBBI control (BBI-WT) culture.
# The concentration of BCE was determined by an activity assay using purified BCE as a standard as described above and by (Vogtentanz et al. 2007). For the analysis of libraries grown in 96-well microtiter plates, 20 μl of culture broth were transferred to each well of a new microtiter plate. A standard curve was created by adding 20, 10, 5 or 2.5 μl of the diluted BBI-WT control culture to these empty wells. Then, 180 μl of the BCE substrate (0.25 μg/ml in Assay Buffer), 4-nitrophenyl β-D-cellobioside (Sigma, St. Louis, Mo.), was added to the plate. The plate was mixed and the absorbance at 405 nm monitored for 15 min, with 1 time point recorded every 12 s using a Spectra Max 250 (Molecular Devices Corp., Sunnyvale, Calif.). The data points were used to determine the rate for each reaction. The standard curve was generated by plotting rate versus culture volume and was fit to a quadratic curve. The BCE concentration in each variant culture was determined relative to the standard control culture. […]
# [2] = target: T2, bovine pancreatic trypsin; experiment: Shake flask screen: trypsin inhibition after growth, 2-mercaptoethanol activation and acid/heat treatment; assay type: biochemical; details: single substitutions in BBIt-AV
# Procedure: To increase expression, the gene copy of the selected clones was amplified by sequentially streaking colonies on Luria agar plates with 25 μg/ml chloramphenicol until the growth rate was similar to growth on Luria agar plates without chloramphenicol. Cultures of the selected variants and controls were grown in 3 ml Luria broth with 25 μg/ml chloramphenicol in 15 ml tubes for ˜10 h. These cultures (30 μl) were then used to inoculate 30 ml of MBD medium in 250 ml baffled shake flasks and grown at 37° C. and 225 rpm for ˜60 h.
# For selection of the variants with the best yields, the culture broths were processed as follows. The broth was first activated by mixing 20 ml of broth with 20 ml of 0.25 M glycine buffer (pH 9.3) and the pH was adjusted to 9.0 with 50% NaOH. Then, 2-mercaptoethanol was added to the diluted cultures to a final concentration of 2 mM and the cultures were incubated overnight at room temperature with gentle shaking. The BBIt-AV moiety was then cleaved from the fusion protein by acid/heat treatment, which was accomplished by first adjusting the pH of the activated broth to pH 1.9-2.0 with sulfuric acid, and followed by incubation at 60° C. for 16 hours, with shaking. The BBIt-AV-BCE fusion protein and the BCE catalytic domain are not soluble at pH 2, whereas the free BBI species is soluble. After the cleavage reaction, the insoluble material was removed by centrifugation (5 min. at 3,000 rpm) and the supernatant was analyzed for trypsin inhibitory activity as described above. The BBI activity was also determined for the starting material and for the samples taken after activation. The BCE activity of the starting material was also determined as described above. The BBIt-AV:BCE activity ratios were then calculated for each step in process. The modified BBIt-AVs produced at the highest yields following the acid/heat treatment were selected for further study.
# [3] = target: T2, bovine pancreatic trypsin; experiment: Purification process yield of octuple variants (trypsin inhibition); assay type: biochemical
# Procedure: The best octuple variants selected in the shake flask screen were tested in the purification process essentially as described above, and including the following changes: 1) after growth, the culture was two fold diluted in glycine buffer (125 mM final concentration and pH adjusted to 9.0) instead of CHES buffer; 2) samples were activated with 2 mM 2-mercaptoethanol only (no sodium sulfite was added; 3) the acid precipitated fusion protein was resuspended in 100 ml of 125 mM glycine (rather than 350 ml of 40 mM glycine); and 4) the pellet collected after the acid/heat treatment was washed with 10 ml water, filtered, and this “washed pellet” filtrate was combined with the original filtrate. The final filtrates were concentrated and trimmed with Glu-BL as described above
Molecule,IC50 (VegF),yield relative to wild-type sBBI [3],further results
B1,–,–,binding to VEGF compared with full-length (untruncated) BBI-AV (VegF; labeled monoclonal antibody against VEGF as competitor): bind better than the full-length molecule
B2,–,–,"relative activity of the amino acid substitution (BBI:BCE activity ratio vs BBIt-AV), amino acid present in BBIsb3-AV [1]: L (+); activation level (BBIt-AV:BCE activity ratio after reducing agent) [2]: activate to similar levels"
B3,2 to 10 µM,–,–
B4,2 to 10 µM,–,–
B5,2 to 10 µM,–,–
B6,–,better than the wild-type sBBI,purification yield relative to quintuple variant (SEQ ID NO:601) [3]: greater than that of the quintuple modified variant
B7,–,better than the wild-type sBBI,purification yield relative to quintuple variant (SEQ ID NO:601) [3]: greater than that of the quintuple modified variant
B8,–,better than the wild-type sBBI,–
